One test addresses T1, human TWEAK receptor (human, UniProt Q9NP84 28-129).
T1 construct: Expressed on COS cells from an expression vector; The entry includes the signal peptide
T1 sequence: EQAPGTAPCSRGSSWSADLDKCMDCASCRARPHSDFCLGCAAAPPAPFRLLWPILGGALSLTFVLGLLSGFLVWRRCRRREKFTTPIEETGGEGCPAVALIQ
Briefly: slide binding on transfected COS cells, I-125 anti-leucine-zipper antibody, autoradiography. The method, then: (§1) Slides of COS cells were transfected with expression vectors containing TWEAKR, DR3, or vector without insert (control). After two days the cells were incubated with concentrated supernatants from CV-1 cells transfected with a vector encoding the leucine zipper TWEAK extracellular domain fusion protein. One hour later the cells were washed and probed with an I-125 labeled antibody against the leucine-zipper domain. The slides were washed, fixed, and autoradiography was performed using x-ray film. The TWEAKR transfected cells bound significant amounts of TWEAK. […] This experiment confirmed that the TWEAKR polypeptide identified in part A above, rather than DR3, is the major receptor for TWEAK. After discovery of the functional TWEAK receptor, other investigators also reported that DR3 is not the major receptor for TWEAK (Kaptein et al., FEBS Lett., 485(2-3): 135, 2000. The TWEAK-TWEAKR binding interaction was further characterized by Scatchard analysis.

Another test concerns the target T2, DR3 (UniProt Q93038 25-417, limits assumed).
T2 construct: whole, on cells; also called Apo3; WSL-1
T2 sequence (looked up): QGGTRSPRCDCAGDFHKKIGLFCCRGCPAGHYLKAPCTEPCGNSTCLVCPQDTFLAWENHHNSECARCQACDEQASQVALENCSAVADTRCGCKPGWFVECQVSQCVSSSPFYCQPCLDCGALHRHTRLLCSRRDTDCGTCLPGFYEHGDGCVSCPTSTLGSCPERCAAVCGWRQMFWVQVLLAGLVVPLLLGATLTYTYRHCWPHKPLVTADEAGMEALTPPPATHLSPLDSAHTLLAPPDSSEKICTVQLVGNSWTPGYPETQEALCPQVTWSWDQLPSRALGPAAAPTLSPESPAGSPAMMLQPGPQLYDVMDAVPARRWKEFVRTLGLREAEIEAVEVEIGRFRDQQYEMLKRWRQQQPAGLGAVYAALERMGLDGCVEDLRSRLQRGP
The test is described as above. On the procedure: as §1

B1: leucine zipper TWEAK extracellular domain fusion protein (ligand)
chain: not shown
notes: Used as concentrated supernatant from transfected CV-1 cells; also called LZ-TWEAK; pDC409-LZ-TWEAK product
As to B1, the binding result in the test with human TWEAK receptor is listed as “binds”; with DR3, “no binding”.
